Consider 1 variant from publication doi:10.1101/2025.08.19.670962 (2025).

To fix the notation:
B1: JIP3-GFP [not stated] / TMEM55B (in HEK293 wild type cells, Figure 4) [not stated] (parent complex)
chain 1: MMEIQMDEGGGVVVYQDDYCSGSVMSERVSGLAGSIYREFERLIHCYDEEVVKELMPLVVNVLENLDSVLSENQEHEVELELLREDNEQLLTQYEREKALRRQAEEKFIEFEDALEQEKKELQIQVEHYEFQTRQLELKAKNYADQISRLEERESEMKKEYNALHQRHTEMIQTYVEHIERSKMQQVGGNSQTESSLPGRRKERPTSLNVFPLADGTVRAQIGGKLVPAGDHWHLSDLGQLQSSSSYQCPQDEMSESGQSSAAATPSTTGTKSNTPTSSVPSAAVTPLNESLQPLGDYGVGSKNSKRAREKRDSRNMEVQVTQEMRNVSIGMGSSDEWSDVQDIIDSTPELDMCPETRLDRTGSSPTQGIVNKAFGINTDSLYHELSTAGSEVIGDVDEGADLLGEFSVRDDFFGMGKEVGNLLLENSQLLETKNALNVVKNDLIAKVDQLSGEQEVLRGELEAAKQAKVKLENRIKELEEELKRVKSEAIIARREPKEEAEDVSSYLCTESDKIPMAQRRRFTRVEMARVLMERNQYKERLMELQEAVRWTEMIRASREHPSVQEKKKSTIWQFFSRLFSSSSSPPPAKRPYPSVNIHYKSPTTAGFSQRRNHAMCPISAGSRPLEFFPDDDCTSSARREQKREQYRQVREHVRNDDGRLQACGWSLPAKYKQLSPNGGQEDTRMKNVPVPVYCRPLVEKDPTMKLWCAAGVNLSGWRPNEDDAGNGVKPAPGRDPLTCDREGDGEPKSAHTSPEKKKAKELPEMDATSSRVWILTSTLTTSKVVIIDANQPGTVVDQFTVCNAHVLCISSIPAASDSDYPPGEMFLDSDVNPEDPGADGVLAGITLVGCATRCNVPRSNCSSRGDTPVLDKGQGEVATIANGKVNPSQSTEEATEATEVPDPGPSEPETATLRPGPLTEHVFTDPAPTPSSGPQPGSENGPEPDSSSTRPEPEPSGDPTGAGSSAAPTMWLGAQNGWLYVHSAVANWKKCLHSIKLKDSVLSLVHVKGRVLVALADGTLAIFHRGEDGQWDLSNYHLMDLGHPHHSIRCMAVVYDRVWCGYKNKVHVIQPKTMQIEKSFDAHPRRESQVRQLAWIGDGVWVSIRLDSTLRLYHAHTHQHLQDVDIEPYVSKMLGTGKLGFSFVRITALLVAGSRLWVGTGNGVVISIPLTETVVLHRGQLLGLRANKTSPTSGEGARPGGIIHVYGDDSSDRAASSFIPYCSMAQAQLCFHGHRDAVKFFVSVPGNVLATLNGSVLDSPAEGPGPAAPASEVEGQKLRNVLVLSGGEGYIDFRIGDGEDDETEEGAGDMSQVKPVLSKAERSHIIVWQVSYTPE
chain 2: not shown

This assay covers variants of B1. The assay can be described thus: co-immunoprecipitation (GFP IP, quantitative immunoblot); HEK293 wild type cells, lysed 24h post transfection; parent: 31; read off a plot. (In general: Immunoblotting shows a protein as a band on a membrane.)
With chain 1 A895L, chain 1 E897K, the response is approximately 10 TMEM55B/GFP.
